{"source": "patent US20070041944A1", "about": "“Treating tumors by ENH dislocation of ID proteins” (THE TRUSTEES OF COLUMBIA UNIVERSITY IN THE CITY OF NEW YORK, priority 2005, published 2007)", "molecules": {"B1": {"name": "ENH: actin cytoskeleton-associated PDZ-LIM protein ENH (Enigma Homologue), full-length, SEQ ID NO:4; also used Flag-tagged (protein, listed as Homo sapiens)", "chain": "MSNYSVSLVGPAPWGFRLQGGKDFNMPLTISSLKDGGKAAQANVRIGDVVLSIDGINAQGMTHLEAQNKIKGCTGSLNMTLQRASAAPKPEPVPVQKGEPKEVVKPVPITSPAVSKVTSTNNMAYNKAPRPFGSVSSPKVTSIPSPSSAFTPAHATTSSHASPSPVAAVTPPLFAASGLHANANLSADQSPSALSAGKTAVNVPRQPTVTSVCSETSQELAEGQRRGSQGDSKQQNGPPRKHIVERYTEFYHVPTHSDASKKRLIEDTEDWRPRTGTTQSRSFRILAQITGTEHLKESEADNTKKANNSQEPSPQLASSVASTRSMPESLDSPTSGRPGVTSLTTAAAFKPVGSTGVIKSPSWQRPNQGVPSTGRISNSATYSGSVAPANSALGQTQPSDQDTLVQRAEHIPAGKRTPMCAHCNQVIRGPFLVALGKSWHPEEFNCAHCKNTMAYIGFVEEKGALYCELCYEKFFAPECGRCQRKILGEVINALKQTWHVSCFVCVACGKPIRNNVFHLEDGEPYCETDYYALFGTICHGCEFPIEAGDMFLEALGYTWHDTCFVCSVCCESLEGQTFFSKKDKPLCKKHAHSVNF"}}, "type_in_all_cases": "cell-based, human", "key": {"SF188 glioma cell line": {"tested_on": "SF188 glioma cell line", "assay": "Colony-forming assay", "conditions": "transfected with pcDNA3-ENH, G418 selection 14 days", "excerpt": "(§1) Cell Culture, Colony-Forming Assay, and Transfection: Neuroblastoma cell lines SK-N-SH, IMR-32, and LAN-1, the glioma cell lines SF188, and COS-1 cells were maintained in 10% FBS (Sigma) in DMEM (Cambrex). For colony-forming assay cells were transfected with pcDNA3-ENH or vector control. Cells were selected in G418 for 14 days, and colonies were scored in triplicate cultures. Cells were transfected by using Lipofectamine 2000 according to the manufacturer's instructions.\n(§2) A well known function of Id2 is the ability to enhance cell proliferation by promoting the transition from G1 to S phase of the cell cycle. Therefore, it was asked whether ENH inhibited cell proliferation and opposed Id2-mediated entry into S phase. […] Next SK-N-SH was transfected with ENH and Id2 in the presence of a GFP expression plasmid and measured the rate of DNA synthesis by incorporation of BrdU of the successfully transfected, GFP-positive cells."}, "[1]": {"tested_on": "IMR-32 neuroblastoma cell line", "assay": "Colony-forming assay", "conditions": "transfected with pcDNA3-ENH, G418 selection 14 days", "excerpt": "as §1, §2"}, "[2]": {"tested_on": "SK-N-SH neuroblastoma cell line", "assay": "Colony-forming assay", "conditions": "transfected with pcDNA3-ENH, G418 selection 14 days", "excerpt": "as §1, §2"}, "SK-N-SH cells": {"tested_on": "SK-N-SH cells", "assay": "BrdU incorporation study", "conditions": "BrdU 6 h and 14 h", "protocol": "BrdU Incorporation Study: SK-N-SH cells were plated in Lab-Tek Chamber Slides (Nalge Nunc Intl.). Cells were transfected with plasmids expressing the empty vector, Id2, ENH, or both and an EGFP expression vector to identify transfected cells. After 24 h, cells were labeled with 10 μM BrdU for 6 h and 14 h, fixed, and stained with anti-BrdU antibody (Roche) for 1 h at room temperature. Secondary antibody was donkey anti-mouse, Cy3-conjugated (Jackson hnmunoResearch). Nuclei were counterstained with DAPI. Cells were examined on an Olympus epifluorescence microscope. BrdU-positive cells were scored by counting at least 500 GFP-positive cells in three independent experiments.\nas §2"}}, "data": [{"molecule": "B1", "values": [{"measurement": "colony formation", "setting": "SF188 glioma cell line", "value": "markedly inhibited"}, {"measurement": "colony formation", "setting": "[1]", "value": "markedly inhibited"}, {"measurement": "colony formation", "setting": "[2]", "value": "markedly inhibited"}, {"measurement": "Id2-mediated stimulation of DNA synthesis", "setting": "SK-N-SH cells; ENH and Id2 cotransfected", "value": "abrogated"}, {"measurement": "S phase entry (BrdU incorporation of GFP-positive cells)", "setting": "SK-N-SH cells; ectopic ENH", "value": "strongly inhibited"}]}]}
